± gives the standard deviation.
Assay: protein stability index of a GFP-peptide fusion (GPS, HEK-293T) (PSI 1-6); higher = more stable
[1] = treatment: DMSO, c terminus: native
[2] = treatment: MLN4924 1 uM, 8 h, c terminus: native
[3] = treatment: DMSO, c terminus: a fixed tail appended
[4] = treatment: MLN4924 1 uM, 8 h, c terminus: a fixed tail appended
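Also: 24-mer peptide tiles fused after GFP, lentivirally expressed, FACS-sorted into six equal bins by GFP/DsRed ratio, decoded by Illumina sequencing, PSI is the read-weighted mean bin number.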

Row | Sequence | protein stability index [1] | protein stability index [2] | protein stability index [3] | protein stability index [4]
1 | FHINQTLREAHFHSLQHRGRPLT [FAM104A] | 2.3 ± 0.45 | 2.2 ± 0.29 |  | 
2 | DVVCKNQDELRNRSVKVICLGSLA [FAN1] |  |  | 2.72 ± 0.26 | 2.98 ± 0.2
3 | IDNARLAADDFRLKYENELALRQG [KRT15] |  |  | 4.24 ± 0.28 | 4.28 ± 0.45
4 | PAQRSHTYTHGLGLHRRPGAGHCS |  |  | 3.52 ± 0.12 | 3.46 ± 0.3
5 | LRVSPDGTAFCSGSWDHTLRVWA [GNB5] | 2.95 ± 0.33 | 2.77 ± 0.77 |  | 
6 | TPYVRWNYVAKNFAQALGCVLYAC [SOAT2] |  |  | 2.7 ± 0.84 | 2.41 ± 0.34
7 | DIYKQECSSRPLQKGSHPMCKEHE [TRIM63] |  |  | 4.49 ± 0.24 | 4.67 ± 0.23
8 | GSNGYILNKPALQAQPLRTTSTLA [EHMT1] |  |  | 3.59 ± 0.36 | 3.44 ± 0.17
9 | PPQSPQGASSLPTTMNYPLWSQSY [MAGEA3] |  |  | 3.45 ± 0.21 | 3.47 ± 0.22
10 | VPETIHDELQQSFQKSHNSLQRWE [PRIM1] |  |  | 3.88 ± 0.16 | 3.75 ± 0.24
11 | GEKPFTCHECGKKFSQNSHLIKHR [ZNF75A] |  |  | 3.44 ± 0.35 | 3.9 ± 0.56
12 | REQILRVKDTDDVPMILVGNKCDL [RAP1B] |  |  | 3.95 ± 0.28 | 3.98 ± 0.14
13 | DTSKQKKMETMYPFIVTLEGNALQ [ZNF449] |  |  | 3.12 ± 0.34 | 2.85 ± 0.12
14 | PDLRQDFNMMEQKKRVSMILQSPA [ADD1] |  |  | 3.7 ± 0.32 | 3.78 ± 0.23
15 | YGLPIMVTLMVAKWTGDFFNKGIY [CLCN6] |  |  | 2.98 ± 0.25 | 3.4 ± 0.42
16 | IINDTYSEVKEELAGQKDELQLSD [PKD2L1] |  |  | 5.35 ± 0.23 | 5.28 ± 0.22
17 | CFRSLAASSPSIRQKKLMHKLQEE [CCDC70] |  |  | 3.22 ± 0.15 | 3.33 ± 0.046
18 | LPTDGSTGVELAPRSAEPGYLVTK [PCDHGA10] |  |  | 4.52 ± 0.17 | 4.66 ± 0.15
19 | LDVTVQSFGWSDRAKVKTDDIARI [FAM98B] |  |  | 2.98 ± 0.28 | 2.89 ± 0.36
20 | PQQYMAFLPHHIMVKIFRLLPTKS [FBXO34] |  |  | 2.23 ± 0.38 | 2.07 ± 0.39
21 | DDRVLSSLVRDTIARVHGTFGAAA [POP5] |  |  | 2.89 ± 0.29 | 2.96 ± 0.23
22 | RRRFREKKKAIQEEEERDQALQAK [YJU2B] |  |  | 5.26 ± 0.36 | 5.33 ± 0.23
23 | MAEQSDEAVKYYTLEEIQKHNHSK [CYB5A] |  |  | 5.31 ± 0.24 | 5.28 ± 0.19

Row | Sequence | protein stability index [1] | protein stability index [2] | protein stability index [3] | protein stability index [4]
24 | DLDANLRKLNSRLFVIRGQPADVF [CRY1] |  |  | 2.07 ± 0.29 | 2.55 ± 0.4
25 | GKGFRDRNVTGTPLTGDKDDEEVD [ADAMTSL2] |  |  | 5.59 ± 0.21 | 5.51 ± 0.34
26 | DSGQYWPSVYHAMPSPCSCMSFNP [WDFY2] |  |  | 2.37 ± 0.19 | 2.31 ± 0.44
27 | TLRPTDSQSHCYRTCFSPASDGSD [PCDHGC5] |  |  | 3.93 ± 0.25 | 4.04 ± 0.28
28 | LEMCVDARTFGNEARFIRRSCTPN [KMT2E] |  |  | 3.19 ± 0.21 | 3.13 ± 0.16
29 | GSENRNHRLLNMARNNNDPGRLTE [RNF180] |  |  | 4.08 ± 0.22 | 4.26 ± 0.24
30 | NNIKFKKSSILTRAGEQRKRSQSM [CLCN6] |  |  | 4.06 ± 0.41 | 4.39 ± 0.1
31 | SLVHMDIKPSNIFISRTSIPNAAS [WEE1] |  |  | 2.43 ± 0.24 | 2.48 ± 0.21
32 | LLQRRKRENMSDGDTSATESGDEV [KMT2E] |  |  | 5.52 ± 0.17 | 5.32 ± 0.38
33 | ELGKGAFSVVRRCMKIPTGQEYAA [CAMK2D] |  |  | 2.46 ± 0.21 | 2.2 ± 0.29
34 | IRNSRPLVKKVEEDEAGGRFVAFS [UFD1] |  |  | 4.11 ± 0.15 | 4.05 ± 0.21
35 | LIKKKKEELEAKRLQCPFEQELLR [FAM107A] |  |  | 3.66 ± 0.12 | 3.71 ± 0.15
36 | LPGRKLVSSAVSPSIIPQEDPSQQ [INTS4] |  |  | 5.12 ± 0.12 | 5.02 ± 0.32
37 | EELCAQSARCVVSFNILVEDRVKL [PCDHGA10] |  |  | 2.57 ± 0.19 | 2.21 ± 0.4
38 | RVNKEHEHKLKVVRDQISHCTVKL [TRIM9] |  |  | 3.29 ± 0.31 | 3.39 ± 0.29
39 | FKAHKSVLAARSPVFNAMFEHEME [SPOPL] |  |  | 3.17 ± 0.41 | 3.17 ± 0.32
40 | KACNKAVAGEFSEPVTLETPAFMF [FSD1] |  |  | 2.84 ± 0.18 | 2.98 ± 0.33
41 | SSKFYDLFLMECEESPNGSEGACE [RHOBTB1] |  |  | 3.72 ± 0.74 | 3.79 ± 0.1
42 | RPLRSREFPQFEPQRYPACAQMLP [TRAF3IP2] |  |  | 3.07 ± 0.44 | 3.44 ± 0.15
43 | NGSSEKREVRQFQFTAWPDHGVPE [PTPRD] |  |  | 4.41 ± 0.14 | 4.43 ± 0.19
44 | GGRRPGTSPALLQGTAEEDHVDLS [CDKN1A] |  |  | 5.46 ± 0.23 | 5.33 ± 0.18
45 | MDLMVEVSPRRIFANGHTYHINSI [PPP2R2C] |  |  | 2.91 ± 0.41 | 2.8 ± 0.6
46 | FLKNTEVSSMECEKNLYWICNKPY [CD69] |  |  | 2.32 ± 0.61 | 2.27 ± 0.21

Row | Sequence | protein stability index [1] | protein stability index [2] | protein stability index [3] | protein stability index [4]
47 | NSEDIFLLLCLKVDNHFNLLTTSP [TRIM43] |  |  | 2.58 ± 0.33 | 2.31 ± 0.67
48 | TMQLFSKQNPSRQEVTKLQQQVKT [FBXO28] |  |  | 3.74 ± 0.2 | 3.75 ± 0.28
49 | SHQCAHCEKTFNRKDHLKNHLQTH [PLAGL1] |  |  | 5.03 ± 0.15 | 5.04 ± 0.14
50 | YLDPSVLSGVSCFVMFLCLADYLV [ARL6IP1] |  |  | 2.98 ± 0.21 | 2.97 ± 0.39
51 | LVEAGAHTDMTNKQNKTPLDKSTT [FEM1B] |  |  | 5.34 ± 0.29 | 5.27 ± 0.21
52 | LRRQKSLRLEWETQQELRKIREKE [IQUB] |  |  | 3.94 ± 0.28 | 4.02 ± 0.091
53 | KLLQGEEERLKLSPSPSSRVTVSR [LMNB1] |  |  | 4.13 ± 0.23 | 4.13 ± 0.3
54 | VYHPSPEESRDPTLYANNVQRVMA [LPCAT4] |  |  | 3.6 ± 0.13 | 3.81 ± 0.12
55 | SGRVKRERDREREPEAASSRGSPV [USP39] |  |  | 5.12 ± 0.18 | 5.33 ± 0.11
56 | SGSRVRVGFRLCNSTGGDCFYRGY [SCNN1D] |  |  | 2.18 ± 0.21 | 2.38 ± 0.49
57 | GAFDSQSTVKDCATIFALSTMTSS [ATL3] |  |  | 3.01 ± 0.25 | 3.19 ± 0.27
58 | VTLRQVLAAKERHCGELKRRLGLS [TPD52L2] |  |  | 2.35 ± 0.28 | 2.67 ± 0.2
59 | RNALENIRKEMKLLEQAGSLKGSL [CRYL1] |  |  | 3.32 ± 0.64 | 3.62 ± 0.32
60 | LNEDPLKWWSDRLALFPLLPKVLQ [ZBED1] |  |  | 2.2 ± 0.25 | 2.16 ± 0.1
61 | VPLGFHYETKYVVLSYLGLLSQEK [BCL2L13] |  |  | 3.25 ± 0.93 | 2.4 ± 0.91
62 | GSAEKQAGEAHMAADGETNGSCEN [EHMT1] |  |  | 5.49 ± 0.37 | 5.6 ± 0.2
63 | PPPPPSPSSLGPLLPLQREPLYNW [BTBD1] |  |  | 3.78 ± 0.15 | 3.73 ± 0.25
64 | GSYGGFASAPTTPCQKSPNGVRVF [TRIM9] |  |  | 3.17 ± 0.18 | 3.25 ± 0.24
65 | DKWVNDPHRMDRRLLALIYLAHAS [GOLPH3] |  |  | 2.63 ± 0.91 | 2.1 ± 0.31
66 | LSLASLLVYVAAFSIGLGPMPWLV [SLC2A12] |  |  | 2.93 ± 0.37 | 2.79 ± 0.68
67 | KLFDDCTQQFKAEKLKEKLKMKER [PPP2R5C] |  |  | 3.43 ± 0.14 | 3.71 ± 0.15
68 | PEFVAPEIVNYEPLGLEADMWSIG [DAPK3] |  |  | 3.46 ± 0.24 | 3.93 ± 0.7
69 | RMLHRSTQTTNDGVCQSMCHDKYT [ZMYND11] |  |  | 3.94 ± 0.18 | 4.04 ± 0.32

Row | Sequence | protein stability index [1] | protein stability index [2] | protein stability index [3] | protein stability index [4]
70 | KKFLTLGSKFRYSGRTQAQTRRAS [EPB41L3] |  |  | 3.27 ± 0.61 | 3.49 ± 0.41
71 | RRKACQACRFTKCLRVGMLKEGVR [ESRRA] |  |  | 2.23 ± 0.25 | 2.3 ± 0.51
72 | SCLLPSSEAKLYGRCELARVLHDF [SPACA3] |  |  | 2.08 ± 0.57 | 2.1 ± 0.26
73 | RTIAETEAAYLKILESSQTLLSVL [SSNA1] |  |  | 2.33 ± 0.29 | 2.72 ± 0.27
74 | NNYRLGGNPSTNSRVTASSGITIP [SMARCE1] |  |  | 3.64 ± 0.3 | 3.54 ± 0.38
75 | LPAEARERSRGRSISRGRHARTHP [MATN2] |  |  | 5.05 ± 0.5 | 5.17 ± 0.23
76 | LVARFLEQSSCTMTPDIHELVENI [FAM189A2] |  |  | 2.54 ± 0.55 | 2.37 ± 0.4
77 | HPEVKCVGSVALTALVTVSSEEFE [C8orf76] |  |  | 3.27 ± 0.19 | 3.31 ± 0.52
78 | SNSCQDSTDTESNNEEQRSGLIYL [IKZF1] |  |  | 4.67 ± 0.27 | 4.735 ± 0.023
79 | SMPCSTDKENGENVGLESKYLKKR [SASS6] |  |  | 4.62 ± 0.4 | 5.08 ± 0.19
80 | NFQFLPQVNGHPDPFDEIILFSLP [PTPN9] |  |  | 2.4 ± 0.29 | 2.37 ± 0.19
81 | GVEEIKGHPFFEGVDWEHIRERPA [STK38L] |  |  | 3.97 ± 0.8 | 4.32 ± 0.37
82 | PTAATTQNPVLSKLLMADQDSPLD [LCOR] |  |  | 4.9 ± 0.17 | 4.87 ± 0.19
83 | NPRAPVIIYKQTKGGVQNFNKDLV [CEP70] |  |  | 2.52 ± 0.18 | 2.46 ± 0.25
84 | NDNKVLRYLAVLESPIPEDKDRRF [EFHC1] |  |  | 3.51 ± 0.21 | 3.6 ± 0.15
85 | YIATQGSLPETFGDFWRMIWEQRS [PTPRD] |  |  | 2.21 ± 0.21 | 2.5 ± 0.55
86 | NVEMDATPGIDLTRVLAEMREQYE [KRT13] |  |  | 4.47 ± 0.17 | 4.75 ± 0.32
87 | LPVSSPEPPPALPPAADAPVTQIG [TRIM55] |  |  | 5.23 ± 0.13 | 5.33 ± 0.12
88 | AGGSSGTTARERPCVRPGVSGSPV [FBF1] |  |  | 4.58 ± 0.16 | 4.47 ± 0.32
89 | TEYQKQLLAAQVQLQCSPAELQAE [FBF1] |  |  | 4.39 ± 0.31 | 4.3 ± 0.2

From the supplement of paper PMC10567573
